Laboratory results as given in US20110178027A1 (published 2011).
Like-named read-outs stand apart in the source and are kept apart here. No end group written: not given here.

T1: PC1/3 (UniProt P29120 111-753)
T1 chain: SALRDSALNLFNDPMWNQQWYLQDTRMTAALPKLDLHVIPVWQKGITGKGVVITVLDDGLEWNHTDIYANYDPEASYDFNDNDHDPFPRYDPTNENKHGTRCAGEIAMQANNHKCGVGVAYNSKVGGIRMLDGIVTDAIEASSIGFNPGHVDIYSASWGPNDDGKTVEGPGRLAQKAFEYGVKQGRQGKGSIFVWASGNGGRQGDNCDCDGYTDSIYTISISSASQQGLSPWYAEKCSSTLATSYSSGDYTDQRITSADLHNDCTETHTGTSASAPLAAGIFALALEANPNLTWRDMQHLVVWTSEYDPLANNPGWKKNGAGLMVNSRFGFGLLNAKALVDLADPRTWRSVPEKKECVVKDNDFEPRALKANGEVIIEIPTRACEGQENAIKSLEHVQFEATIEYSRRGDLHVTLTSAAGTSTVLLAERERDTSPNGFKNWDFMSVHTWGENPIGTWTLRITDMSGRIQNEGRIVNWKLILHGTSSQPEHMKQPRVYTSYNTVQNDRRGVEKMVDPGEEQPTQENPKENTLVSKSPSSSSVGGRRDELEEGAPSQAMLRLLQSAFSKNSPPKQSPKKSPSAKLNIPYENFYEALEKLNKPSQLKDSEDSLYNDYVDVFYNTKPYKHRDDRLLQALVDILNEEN

T2: PC7 (UniProt Q16549 142-667)
T2 chain: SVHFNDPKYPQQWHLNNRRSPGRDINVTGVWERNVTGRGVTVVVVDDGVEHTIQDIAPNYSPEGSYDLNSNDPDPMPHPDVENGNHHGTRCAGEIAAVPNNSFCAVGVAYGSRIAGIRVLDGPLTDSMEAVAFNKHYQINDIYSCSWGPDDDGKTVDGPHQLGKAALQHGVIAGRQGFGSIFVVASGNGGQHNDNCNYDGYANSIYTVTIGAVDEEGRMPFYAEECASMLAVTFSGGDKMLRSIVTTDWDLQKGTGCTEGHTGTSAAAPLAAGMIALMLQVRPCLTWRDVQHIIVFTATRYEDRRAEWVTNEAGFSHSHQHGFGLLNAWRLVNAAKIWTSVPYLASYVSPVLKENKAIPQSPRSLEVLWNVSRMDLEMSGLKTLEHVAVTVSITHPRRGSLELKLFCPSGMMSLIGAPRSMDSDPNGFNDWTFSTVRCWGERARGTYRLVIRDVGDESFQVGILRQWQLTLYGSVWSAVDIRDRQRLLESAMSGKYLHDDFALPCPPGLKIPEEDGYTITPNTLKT

T3: PC2 (UniProt P16519 110-638)
T3 chain: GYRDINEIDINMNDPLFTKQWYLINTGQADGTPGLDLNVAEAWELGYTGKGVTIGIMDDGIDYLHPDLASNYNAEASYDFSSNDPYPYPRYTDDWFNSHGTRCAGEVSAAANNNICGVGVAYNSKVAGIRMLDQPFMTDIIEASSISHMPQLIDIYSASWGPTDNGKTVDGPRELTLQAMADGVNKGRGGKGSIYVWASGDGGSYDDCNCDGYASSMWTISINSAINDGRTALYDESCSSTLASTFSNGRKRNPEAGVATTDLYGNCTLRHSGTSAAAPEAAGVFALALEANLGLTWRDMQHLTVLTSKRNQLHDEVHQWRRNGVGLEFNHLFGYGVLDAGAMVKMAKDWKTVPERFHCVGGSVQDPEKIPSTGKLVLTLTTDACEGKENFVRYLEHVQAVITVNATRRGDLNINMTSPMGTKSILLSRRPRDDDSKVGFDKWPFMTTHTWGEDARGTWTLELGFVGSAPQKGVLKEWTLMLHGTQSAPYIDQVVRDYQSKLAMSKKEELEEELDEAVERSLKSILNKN

T4: PC5/6 (UniProt Q92824 115-913)
T4 chain: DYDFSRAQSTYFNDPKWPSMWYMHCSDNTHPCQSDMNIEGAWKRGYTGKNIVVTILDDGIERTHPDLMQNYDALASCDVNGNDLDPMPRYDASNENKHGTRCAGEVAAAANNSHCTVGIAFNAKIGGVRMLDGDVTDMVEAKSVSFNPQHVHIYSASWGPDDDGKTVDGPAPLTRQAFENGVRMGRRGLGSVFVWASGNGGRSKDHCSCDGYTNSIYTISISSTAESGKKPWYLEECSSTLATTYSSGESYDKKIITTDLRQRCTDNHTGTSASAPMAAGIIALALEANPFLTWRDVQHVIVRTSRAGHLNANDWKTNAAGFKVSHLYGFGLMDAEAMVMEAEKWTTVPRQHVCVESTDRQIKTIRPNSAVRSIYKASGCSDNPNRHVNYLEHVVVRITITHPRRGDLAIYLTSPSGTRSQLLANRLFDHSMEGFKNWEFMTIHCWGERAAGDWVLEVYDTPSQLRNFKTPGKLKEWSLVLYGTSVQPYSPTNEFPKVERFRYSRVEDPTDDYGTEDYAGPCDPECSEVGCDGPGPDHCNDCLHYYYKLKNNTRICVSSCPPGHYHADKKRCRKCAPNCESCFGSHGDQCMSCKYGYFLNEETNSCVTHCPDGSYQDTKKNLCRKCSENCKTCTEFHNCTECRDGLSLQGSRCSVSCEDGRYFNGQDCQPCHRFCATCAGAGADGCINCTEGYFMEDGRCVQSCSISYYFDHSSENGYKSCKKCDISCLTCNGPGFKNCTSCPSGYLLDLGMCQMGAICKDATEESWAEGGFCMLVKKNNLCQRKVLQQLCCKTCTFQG

T5: PACE4 (UniProt P29122 150-969)
T5 chain: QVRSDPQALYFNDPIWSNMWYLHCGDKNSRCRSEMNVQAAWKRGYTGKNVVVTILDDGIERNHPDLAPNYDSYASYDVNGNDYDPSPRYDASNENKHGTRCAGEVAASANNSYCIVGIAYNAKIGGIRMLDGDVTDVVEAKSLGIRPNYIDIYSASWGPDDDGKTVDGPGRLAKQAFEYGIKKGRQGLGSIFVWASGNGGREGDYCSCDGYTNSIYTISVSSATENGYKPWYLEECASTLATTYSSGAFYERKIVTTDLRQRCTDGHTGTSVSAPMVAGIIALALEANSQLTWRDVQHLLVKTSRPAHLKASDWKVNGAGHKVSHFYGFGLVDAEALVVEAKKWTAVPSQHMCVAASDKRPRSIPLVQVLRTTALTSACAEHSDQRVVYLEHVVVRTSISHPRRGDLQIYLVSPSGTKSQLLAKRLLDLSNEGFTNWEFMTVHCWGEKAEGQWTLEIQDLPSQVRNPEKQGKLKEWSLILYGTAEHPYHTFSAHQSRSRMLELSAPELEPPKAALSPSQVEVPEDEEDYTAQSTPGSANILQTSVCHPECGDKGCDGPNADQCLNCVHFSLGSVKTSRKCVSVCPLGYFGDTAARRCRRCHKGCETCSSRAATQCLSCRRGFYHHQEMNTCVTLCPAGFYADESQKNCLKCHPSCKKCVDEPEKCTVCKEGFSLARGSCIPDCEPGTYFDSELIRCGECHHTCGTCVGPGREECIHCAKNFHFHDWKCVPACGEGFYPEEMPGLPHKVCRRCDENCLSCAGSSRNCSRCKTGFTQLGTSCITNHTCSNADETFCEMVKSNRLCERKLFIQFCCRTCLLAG


Experiments:
[1] = biological target: T6, furin (UniProt P09958 108-715)
T6 sequence (P09958 108-715): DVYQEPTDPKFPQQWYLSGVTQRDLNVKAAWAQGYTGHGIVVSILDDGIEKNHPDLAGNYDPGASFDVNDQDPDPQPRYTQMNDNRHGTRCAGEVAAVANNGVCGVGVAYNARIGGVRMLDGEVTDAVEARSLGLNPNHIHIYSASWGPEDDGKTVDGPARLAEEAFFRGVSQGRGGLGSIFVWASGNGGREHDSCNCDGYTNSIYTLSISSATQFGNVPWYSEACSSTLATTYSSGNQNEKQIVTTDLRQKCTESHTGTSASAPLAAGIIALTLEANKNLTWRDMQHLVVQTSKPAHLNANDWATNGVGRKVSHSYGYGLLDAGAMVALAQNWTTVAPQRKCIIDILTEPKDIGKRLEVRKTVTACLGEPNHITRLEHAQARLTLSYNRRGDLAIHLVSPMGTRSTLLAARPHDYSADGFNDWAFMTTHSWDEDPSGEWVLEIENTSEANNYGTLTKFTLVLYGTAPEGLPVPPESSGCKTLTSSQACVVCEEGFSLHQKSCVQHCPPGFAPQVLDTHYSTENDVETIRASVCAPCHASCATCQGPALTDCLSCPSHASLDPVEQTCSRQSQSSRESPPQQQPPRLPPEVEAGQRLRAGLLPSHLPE

[2] = biological target: T1, PC1/3; experiment: enzyme inhibition
[3] = biological target: T6, furin; experiment: enzyme inhibition
[4] = biological target: T2, PC7; experiment: enzyme inhibition
[5] = biological target: T3, PC2; experiment: enzyme inhibition
[6] = biological target: T4, PC5/6; experiment: enzyme inhibition
[7] = biological target: T5, PACE4; experiment: enzyme inhibition

Binder | Ki [1] | Ki [2] | Ki [3] | Ki [4] | Ki [5] | Ki [6] | Ki [7]
LLLLRVKR-NH2 [LLLLRVKR-NH2] | 1.14 µM |  |  |  |  |  | 
RVKR-NH2 [RVKR-NH2] |  | 1.45 µM | 8.11 µM | 10.4 µM |  | 5.57 µM | 4.34 µM
LLLLLLRVKR-NH2 [LLLLLLRVKR-NH2] |  | 1.16 µM | 1.39 µM | 0.03 µM | 4.55 µM |  | 

Continued by falling Ki [2], values first:

Ki [1] | Ki [2] | Ki [3] | Ki [4] | Ki [5] | Ki [6] | Ki [7] | Binder
 | 0.58 µM | 0.55 µM | 2.49 µM |  | 0.36 µM |  | LRVKR-NH2 [LRVKR-NH2]
 | 0.37 µM | 1.5 µM | 0.04 µM | 4.83 µM |  |  | LLLLLRVKR-NH2 [LLLLLRVKR-NH2]
 | 0.24 µM | 0.98 µM | 0.05 µM | 12.9 µM | 0.34 µM |  | LLLRVKR-NH2 [LLLRVKR-NH2]
0.54 µM | 0.17 µM |  | 0.1 µM | 3.27 µM | 0.13 µM |  | LLRVKR-NH2 [LLRVKR-NH2]
